Experimental data taken from the supplement of paper PMC7125110.
± gives the standard error. For some of these results: Fewer inactive variants are shown than the library holds.

B1: glmS ribozyme (parent)
chain: AUAAAAGCGCCAGAACUACAGAAAUGUAGUUGACGAGGAGGAGGUUUAUCGAAUUUUCGGCGGAUGCCUCCAAA

Legend:
Settings in all cases: with glucosamine-6-phosphate
[1] = variants of: B1; test: kcat; higher = faster cleavage; RNA array
Procedure, shortened: (§1)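 A hybridised Cy3 probe tracked barcoded ribozyme variants, transcribed in situ by E. coli RNA polymerase on sequenced MiSeq chips, at 37 °C. The variants received 40 μM to 10 mM glucosamine-6-phosphate in HEPES/KCl/Mg(OAc)2 buffer. kobs came from decay fits and kcat and KM from weighted Michaelis–Menten fits.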

[2] = variants of: B1; test: KM; higher = weaker cofactor use; RNA array
Procedure, shortened: as §1

[3] = variants of: B1; test: self-cleavage kobs at 40 uM GlcN6P; higher = faster cleavage; RNA array
Procedure, shortened: as §1

[4] = variants of: B1; test: self-cleavage kobs at 640 uM GlcN6P; higher = faster cleavage; RNA array
Procedure, shortened: as §1

[5] = variants of: B1; test: self-cleavage kobs at 2500 uM GlcN6P; higher = faster cleavage; RNA array
Procedure, shortened: as §1

[6] = variants of: B1; test: self-cleavage kobs at 10000 uM GlcN6P; higher = faster cleavage; RNA array
Procedure, shortened: as §1

[7] = variants of: B1; test: self-cleavage kobs at 160 uM GlcN6P; higher = faster cleavage; RNA array
Procedure, shortened: as §1

A39G G66U
kcat [1]: 0.00533 ± 0.00016 s⁻¹ | KM [2]: 1960 ± 79 µM | self-cleavage kobs at 40 uM GlcN6P [3]: 0.000107 ± 1.9e-05 s⁻¹ | self-cleavage kobs at 640 uM GlcN6P [4]: 0.00133 ± 0.00029 s⁻¹ | self-cleavage kobs at 2500 uM GlcN6P [5]: 0.00285 ± 0.0009 s⁻¹ | self-cleavage kobs at 10000 uM GlcN6P [6]: 0.00451 ± 0.00097 s⁻¹

G13C G29A
kcat [1]: 0.000136 ± 1.6e-05 s⁻¹ | KM [2]: 3070 ± 910 µM | self-cleavage kobs at 640 uM GlcN6P [4]: 3.33e-05 ± 1.2e-05 s⁻¹ | self-cleavage kobs at 2500 uM GlcN6P [5]: 5.64e-05 ± 9.9e-06 s⁻¹ | self-cleavage kobs at 10000 uM GlcN6P [6]: 0.000106 ± 1.2e-05 s⁻¹

A14C C71A
kcat [1]: 0.00106 ± 0.00051 s⁻¹ | self-cleavage kobs at 40 uM GlcN6P [3]: 3.61e-05 ± 1.7e-05 s⁻¹ | self-cleavage kobs at 160 uM GlcN6P [7]: 0.000121 ± 3.2e-05 s⁻¹ | self-cleavage kobs at 640 uM GlcN6P [4]: 0.000194 ± 3.2e-05 s⁻¹ | self-cleavage kobs at 2500 uM GlcN6P [5]: 0.000353 ± 5.6e-05 s⁻¹ | self-cleavage kobs at 10000 uM GlcN6P [6]: 0.000984 ± 0.00013 s⁻¹

C8U A42U
kcat [1]: < 1e-05 s⁻¹ | self-cleavage kobs at 640 uM GlcN6P [4]: < 1e-05 s⁻¹

U45C U54A
kcat [1]: 0.00783 ± 0.0023 s⁻¹ | KM [2]: 6680 ± 2400 µM | self-cleavage kobs at 160 uM GlcN6P [7]: 0.000161 ± 3.3e-05 s⁻¹ | self-cleavage kobs at 640 uM GlcN6P [4]: 0.00072 ± 0.00011 s⁻¹ | self-cleavage kobs at 2500 uM GlcN6P [5]: 0.00255 ± 0.00053 s⁻¹ | self-cleavage kobs at 10000 uM GlcN6P [6]: 0.00436 ± 0.001 s⁻¹

G40A U65A
kcat [1]: 0.00131 ± 0.0003 s⁻¹ | KM [2]: 2690 ± 980 µM | self-cleavage kobs at 40 uM GlcN6P [3]: 3.89e-05 ± 8.4e-06 s⁻¹ | self-cleavage kobs at 160 uM GlcN6P [7]: 7.08e-05 ± 1.3e-05 s⁻¹ | self-cleavage kobs at 640 uM GlcN6P [4]: 0.000213 ± 4.3e-05 s⁻¹ | self-cleavage kobs at 2500 uM GlcN6P [5]: 0.000615 ± 0.00011 s⁻¹ | self-cleavage kobs at 10000 uM GlcN6P [6]: 0.00106 ± 0.00012 s⁻¹

A53U G60A C70A
kcat [1]: 1.78e-05 ± 4.4e-06 s⁻¹

G32U A33U
kcat [1]: < 1e-05 s⁻¹ | self-cleavage kobs at 40 uM GlcN6P [3]: < 1e-05 s⁻¹ | self-cleavage kobs at 160 uM GlcN6P [7]: < 1e-05 s⁻¹ | self-cleavage kobs at 2500 uM GlcN6P [5]: < 1e-05 s⁻¹

C67U U69A
kcat [1]: 4.62e-05 ± 6.3e-06 s⁻¹ | self-cleavage kobs at 40 uM GlcN6P [3]: < 1e-05 s⁻¹ | self-cleavage kobs at 640 uM GlcN6P [4]: 5e-05 ± 1.8e-05 s⁻¹ | self-cleavage kobs at 2500 uM GlcN6P [5]: 4.79e-05 ± 1.1e-05 s⁻¹ | self-cleavage kobs at 10000 uM GlcN6P [6]: 3.56e-05 ± 1.5e-05 s⁻¹

A14G G29C U56A
kcat [1]: 0.00138 ± 0.00036 s⁻¹ | KM [2]: 1960 ± 970 µM | self-cleavage kobs at 40 uM GlcN6P [3]: 3.76e-05 ± 1.8e-05 s⁻¹ | self-cleavage kobs at 640 uM GlcN6P [4]: 0.000364 ± 8.4e-05 s⁻¹ | self-cleavage kobs at 2500 uM GlcN6P [5]: 0.000647 ± 0.00014 s⁻¹ | self-cleavage kobs at 10000 uM GlcN6P [6]: 0.00136 ± 0.00029 s⁻¹

A14U C50A U54G G62A C68U
kcat [1]: 3.85e-05 ± 1.7e-05 s⁻¹ | self-cleavage kobs at 640 uM GlcN6P [4]: 7.62e-05 ± 2.5e-05 s⁻¹

C10U C67G U69G
kcat [1]: 1.67e-05 ± 3.6e-06 s⁻¹

U31G U56G C71A
kcat [1]: 0.000443 ± 5.1e-05 s⁻¹ | KM [2]: 3050 ± 740 µM | self-cleavage kobs at 2500 uM GlcN6P [5]: 0.000191 ± 4.5e-05 s⁻¹ | self-cleavage kobs at 10000 uM GlcN6P [6]: 0.00035 ± 9e-05 s⁻¹

G41U U45G
kcat [1]: 0.000293 ± 5.4e-05 s⁻¹ | KM [2]: 909 ± 340 µM | self-cleavage kobs at 160 uM GlcN6P [7]: 3.13e-05 ± 1.4e-05 s⁻¹ | self-cleavage kobs at 640 uM GlcN6P [4]: 0.000129 ± 1.7e-05 s⁻¹ | self-cleavage kobs at 2500 uM GlcN6P [5]: 0.000339 ± 9.1e-05 s⁻¹ | self-cleavage kobs at 10000 uM GlcN6P [6]: 0.000243 ± 4.4e-05 s⁻¹

G38U C58U U69G
kcat [1]: 0.000168 ± 1.3e-05 s⁻¹ | self-cleavage kobs at 40 uM GlcN6P [3]: 0.000148 ± 4.2e-05 s⁻¹ | self-cleavage kobs at 160 uM GlcN6P [7]: 0.000207 ± 5.2e-05 s⁻¹ | self-cleavage kobs at 640 uM GlcN6P [4]: 0.000157 ± 2.8e-05 s⁻¹ | self-cleavage kobs at 2500 uM GlcN6P [5]: 0.000189 ± 6.3e-05 s⁻¹ | self-cleavage kobs at 10000 uM GlcN6P [6]: 0.000156 ± 4.9e-05 s⁻¹

U57G C58U C70U
kcat [1]: 1.35e-05 ± 3.4e-06 s⁻¹ | self-cleavage kobs at 160 uM GlcN6P [7]: < 1e-05 s⁻¹

A15C C67A
kcat [1]: 0.000713 ± 0.00031 s⁻¹ | self-cleavage kobs at 40 uM GlcN6P [3]: 5.14e-05 ± 1.2e-05 s⁻¹ | self-cleavage kobs at 160 uM GlcN6P [7]: 0.000103 ± 1.7e-05 s⁻¹ | self-cleavage kobs at 640 uM GlcN6P [4]: 0.000552 ± 0.0001 s⁻¹ | self-cleavage kobs at 2500 uM GlcN6P [5]: 0.000389 ± 0.00012 s⁻¹ | self-cleavage kobs at 10000 uM GlcN6P [6]: 0.000858 ± 0.00022 s⁻¹

C11U U56A
kcat [1]: 0.00124 ± 0.00023 s⁻¹ | KM [2]: 1910 ± 580 µM | self-cleavage kobs at 40 uM GlcN6P [3]: 3.72e-05 ± 1e-05 s⁻¹ | self-cleavage kobs at 160 uM GlcN6P [7]: 0.000103 ± 1.4e-05 s⁻¹ | self-cleavage kobs at 640 uM GlcN6P [4]: 0.000294 ± 4.5e-05 s⁻¹ | self-cleavage kobs at 2500 uM GlcN6P [5]: 0.000621 ± 7.2e-05 s⁻¹ | self-cleavage kobs at 10000 uM GlcN6P [6]: 0.00125 ± 0.00016 s⁻¹

G7A G37C U47A
kcat [1]: 1.02e-05 ± 2.4e-06 s⁻¹ | self-cleavage kobs at 160 uM GlcN6P [7]: < 1e-05 s⁻¹

A48U C67U
kcat [1]: 0.00022 ± 1.3e-05 s⁻¹ | KM [2]: 1890 ± 230 µM | self-cleavage kobs at 640 uM GlcN6P [4]: 5.32e-05 ± 7.6e-06 s⁻¹ | self-cleavage kobs at 2500 uM GlcN6P [5]: 0.000135 ± 1.7e-05 s⁻¹ | self-cleavage kobs at 10000 uM GlcN6P [6]: 0.00018 ± 2e-05 s⁻¹

C10U U47G
kcat [1]: < 1e-05 s⁻¹ | self-cleavage kobs at 160 uM GlcN6P [7]: < 1e-05 s⁻¹

A52G C68U
kcat [1]: 0.000874 ± 0.00036 s⁻¹ | self-cleavage kobs at 40 uM GlcN6P [3]: 2.35e-05 ± 7.7e-06 s⁻¹ | self-cleavage kobs at 160 uM GlcN6P [7]: 9.18e-05 ± 1.1e-05 s⁻¹ | self-cleavage kobs at 640 uM GlcN6P [4]: 0.00015 ± 1.7e-05 s⁻¹ | self-cleavage kobs at 2500 uM GlcN6P [5]: 0.000377 ± 4e-05 s⁻¹ | self-cleavage kobs at 10000 uM GlcN6P [6]: 0.000858 ± 9.2e-05 s⁻¹

C10U A15G C68U
kcat [1]: 1.81e-05 ± 6.2e-06 s⁻¹

G29A C71G
kcat [1]: 0.00019 ± 3.4e-05 s⁻¹ | self-cleavage kobs at 640 uM GlcN6P [4]: 9.26e-05 ± 2.3e-05 s⁻¹ | self-cleavage kobs at 2500 uM GlcN6P [5]: 0.000117 ± 2.3e-05 s⁻¹ | self-cleavage kobs at 10000 uM GlcN6P [6]: 0.000204 ± 3.3e-05 s⁻¹

C58A A64C
kcat [1]: < 1e-05 s⁻¹ | self-cleavage kobs at 40 uM GlcN6P [3]: < 1e-05 s⁻¹

A15G A53C
kcat [1]: 0.00857 ± 0.0011 s⁻¹ | KM [2]: 1860 ± 340 µM | self-cleavage kobs at 40 uM GlcN6P [3]: 0.000205 ± 3.7e-05 s⁻¹ | self-cleavage kobs at 160 uM GlcN6P [7]: 0.000653 ± 0.00021 s⁻¹ | self-cleavage kobs at 640 uM GlcN6P [4]: 0.00195 ± 0.00035 s⁻¹ | self-cleavage kobs at 2500 uM GlcN6P [5]: 0.00522 ± 0.0012 s⁻¹ | self-cleavage kobs at 10000 uM GlcN6P [6]: 0.00742 ± 0.0015 s⁻¹

G13U A42G
kcat [1]: 0.00137 ± 0.00022 s⁻¹ | KM [2]: 1680 ± 460 µM | self-cleavage kobs at 40 uM GlcN6P [3]: 2.35e-05 ± 1.1e-05 s⁻¹ | self-cleavage kobs at 160 uM GlcN6P [7]: 0.000152 ± 3.8e-05 s⁻¹ | self-cleavage kobs at 2500 uM GlcN6P [5]: 0.00082 ± 0.00017 s⁻¹ | self-cleavage kobs at 10000 uM GlcN6P [6]: 0.00117 ± 0.00027 s⁻¹

A52U G59A C68G
kcat [1]: < 1e-05 s⁻¹

G43C C68U
kcat [1]: 0.000722 ± 5.4e-05 s⁻¹ | KM [2]: 1370 ± 190 µM | self-cleavage kobs at 160 uM GlcN6P [7]: 7.12e-05 ± 1.6e-05 s⁻¹ | self-cleavage kobs at 640 uM GlcN6P [4]: 0.000235 ± 2.8e-05 s⁻¹ | self-cleavage kobs at 2500 uM GlcN6P [5]: 0.000572 ± 0.00012 s⁻¹ | self-cleavage kobs at 10000 uM GlcN6P [6]: 0.000615 ± 6.7e-05 s⁻¹

A14C G40A
kcat [1]: 0.00106 ± 0.00042 s⁻¹ | self-cleavage kobs at 40 uM GlcN6P [3]: 3.61e-05 ± 8.7e-06 s⁻¹ | self-cleavage kobs at 160 uM GlcN6P [7]: 8.2e-05 ± 1.6e-05 s⁻¹ | self-cleavage kobs at 640 uM GlcN6P [4]: 0.000371 ± 5.8e-05 s⁻¹ | self-cleavage kobs at 2500 uM GlcN6P [5]: 0.000306 ± 8.2e-05 s⁻¹ | self-cleavage kobs at 10000 uM GlcN6P [6]: 0.00112 ± 0.00011 s⁻¹

A39U U46G
kcat [1]: 0.00673 ± 0.0011 s⁻¹ | KM [2]: 4400 ± 920 µM | self-cleavage kobs at 40 uM GlcN6P [3]: 5.61e-05 ± 1.4e-05 s⁻¹ | self-cleavage kobs at 160 uM GlcN6P [7]: 0.000227 ± 6.1e-05 s⁻¹ | self-cleavage kobs at 640 uM GlcN6P [4]: 0.000968 ± 0.00018 s⁻¹ | self-cleavage kobs at 2500 uM GlcN6P [5]: 0.0023 ± 0.00049 s⁻¹ | self-cleavage kobs at 10000 uM GlcN6P [6]: 0.00476 ± 0.0014 s⁻¹

G40A G41U
kcat [1]: 7.26e-05 ± 2.3e-06 s⁻¹ | KM [2]: 1160 ± 110 µM | self-cleavage kobs at 640 uM GlcN6P [4]: 2.54e-05 ± 8.5e-06 s⁻¹ | self-cleavage kobs at 2500 uM GlcN6P [5]: 5.29e-05 ± 1.9e-05 s⁻¹ | self-cleavage kobs at 10000 uM GlcN6P [6]: 6.43e-05 ± 1.3e-05 s⁻¹
